# Measured values reported in patent US20040156842A1 (ZymoGenetics, published 2004).
# Read-outs that look alike come from different tables or passages of the source.
# B1: Zven2 ("endocrine-gland-derived vascular endothelial growth factor") protein purchased from Peprotech, Inc. (ligand)
# chain: AVITGACERDVQCGAGTCCAISLWLRGLRMCTPLGREGEECHPGSHKVPFFRKRKHHTCPCLPNLLCSRFPDGRYRCSMDLKNINF
# B2: Zven1 (E. coli produced) (ligand)
# chain: AVITGACDKDSQCGGGMCCAVSIWVKSIRICTPMGKLGDSCHPLTRKVPFFGRRMHHTCPCLPGLACLRTSFNRFICLAQK
# B3: Zven1 protein produced in baculovirus with a C-terminal Glu-Glu tag (ligand)
# chain: AVITGACDKDSQCGGGMCCAVSIWVKSIRICTPMGKLGDSCHPLTRKVPFFGRRMHHTCPCLPGLACLRTSFNRFICLAQKGLEYMPMD
# B4: Heated Zven1 (Baculovirus-expressed Zven1 heated at 56° C. for 30 minutes) (ligand)
# chain: B3 chain
# Columns and labels:
# [1] = target: GPCR73a receptor (Homo sapiens (Human)) (UniProt Q8TCW9); assay: cell-based or functional assay
# [2] = target: GPCR73b receptor (Homo sapiens (Human)) (UniProt Q8NFJ6); assay: cell-based or functional assay
# [3] = target: GPCR73a receptor (Homo sapiens (Human)) (UniProt Q8TCW9); assay: cell-based or functional assay; remark: listed apart in the source
# [4] = target: GPCR73b receptor (Homo sapiens (Human)) (UniProt Q8NFJ6); assay: cell-based or functional assay; remark: listed apart in the source
# GPCR73a receptor [5] = target: T1, GPCR73a receptor (Homo sapiens (Human), UniProt Q8TCW9 1-393); assay: cell-based or functional assay
# GPCR73a receptor [6] = target: T1, GPCR73a receptor; assay: cell-based or functional assay; remark: listed apart in the source
# GPCR73b receptor [7] = target: T2, GPCR73b receptor (Homo sapiens (Human), UniProt Q8NFJ6 1-384); assay: cell-based or functional assay
# GPCR73b receptor [8] = target: T2, GPCR73b receptor; assay: cell-based or functional assay; remark: listed apart in the source
# [9] = target: Zven1 receptor on Wky12-22 cells (rat); assay: cell-based or functional assay
# [10] = target: Zven1 receptor on Wky12-22 cells (rat); assay: saturation binding of I125-radiolabeled Zven1 to Wky12-22 cell monolayers at 4 C, two-site nonlinear regression; low affinity site
# [11] = target: Zven1 receptor on Wky12-22 cells (rat); assay: saturation binding of I125-radiolabeled Zven1 to Wky12-22 cell monolayers at 4 C, two-site nonlinear regression; high affinity site
# GPCR73a receptor (Homo sapiens (Human)), sequence (Q8TCW9 whole entry): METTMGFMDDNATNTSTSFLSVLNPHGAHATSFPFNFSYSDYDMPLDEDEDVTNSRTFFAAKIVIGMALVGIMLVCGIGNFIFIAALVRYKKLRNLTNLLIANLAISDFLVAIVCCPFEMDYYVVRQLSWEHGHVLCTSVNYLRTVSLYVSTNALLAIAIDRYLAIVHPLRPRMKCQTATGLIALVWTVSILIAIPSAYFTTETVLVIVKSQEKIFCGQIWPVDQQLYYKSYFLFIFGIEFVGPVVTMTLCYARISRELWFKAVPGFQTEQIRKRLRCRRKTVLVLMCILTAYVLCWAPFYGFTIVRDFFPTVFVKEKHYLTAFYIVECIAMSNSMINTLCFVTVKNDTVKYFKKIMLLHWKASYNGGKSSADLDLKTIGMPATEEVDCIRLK
# T1 sequence (Q8TCW9 whole entry): as above
# T2 sequence (Q8NFJ6 whole entry): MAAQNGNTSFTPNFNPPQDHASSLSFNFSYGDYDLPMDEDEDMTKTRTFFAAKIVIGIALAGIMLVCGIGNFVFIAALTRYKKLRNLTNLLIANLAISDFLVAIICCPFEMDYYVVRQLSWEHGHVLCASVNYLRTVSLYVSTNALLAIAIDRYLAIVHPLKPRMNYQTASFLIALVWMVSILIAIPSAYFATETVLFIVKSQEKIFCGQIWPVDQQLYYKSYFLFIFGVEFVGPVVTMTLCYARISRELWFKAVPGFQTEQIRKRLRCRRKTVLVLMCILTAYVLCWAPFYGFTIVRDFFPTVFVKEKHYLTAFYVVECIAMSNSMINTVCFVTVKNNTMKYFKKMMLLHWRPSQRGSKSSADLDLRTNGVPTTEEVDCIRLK
# GPCR73b receptor (Homo sapiens (Human)), sequence (Q8NFJ6 whole entry): as above
binder,measurement,setting,value
B1,SRE luciferase fold-induction at 1 ng/ml (fold-induction),[1],1.2
same,SRE luciferase fold-induction at 3.2 ng/ml (fold-induction),[1],1.6
same,SRE luciferase fold-induction at 10 ng/ml (fold-induction),[1],2.5
same,SRE luciferase fold-induction at 32 ng/ml (fold-induction),[1],5.8
same,SRE luciferase fold-induction at 100 ng/ml (fold-induction),[1],11.4
same,SRE luciferase fold-induction at 320 ng/ml (fold-induction),[1],24.4
same,SRE luciferase fold-induction at 1000 ng/ml (fold-induction),[1],20
same,SRE luciferase fold-induction at 1 ng/ml (fold-induction),[2],1.1
same,SRE luciferase fold-induction at 3.2 ng/ml (fold-induction),[2],1.3
same,SRE luciferase fold-induction at 10 ng/ml (fold-induction),[2],1.8
same,SRE luciferase fold-induction at 32 ng/ml (fold-induction),[2],2.8
same,SRE luciferase fold-induction at 100 ng/ml (fold-induction),[2],5.6
same,SRE luciferase fold-induction at 320 ng/ml (fold-induction),[2],8.3
same,SRE luciferase fold-induction at 1000 ng/ml (fold-induction),[2],8.4
same,SRE luciferase fold-induction at 1 ng/ml (fold-induction),[3],0.95
same,SRE luciferase fold-induction at 3.2 ng/ml (fold-induction),[3],1.3
same,SRE luciferase fold-induction at 10 ng/ml (fold-induction),[3],2.6
same,SRE luciferase fold-induction at 32 ng/ml (fold-induction),[3],7.2
same,SRE luciferase fold-induction at 320 ng/ml (fold-induction),[3],20.5
same,SRE luciferase fold-induction at 1000 ng/ml (fold-induction),[3],15
same,SRE luciferase fold-induction at 3.2 ng/ml (fold-induction),[4],1.4
same,SRE luciferase fold-induction at 32 ng/ml (fold-induction),[4],2.7
same,SRE luciferase fold-induction at 100 ng/ml (fold-induction),[4],4.1
same,SRE luciferase fold-induction at 320 ng/ml (fold-induction),[4],5.8
same,SRE luciferase fold-induction at 1000 ng/ml (fold-induction),[4],6.1
B2,SRE luciferase fold-induction at 1 ng/ml,GPCR73a receptor [5],1.9 fold-induction
same,SRE luciferase fold-induction at 3.2 ng/ml,GPCR73a receptor [5],4 fold-induction
same,SRE luciferase fold-induction at 10 ng/ml,GPCR73a receptor [5],8.4 fold-induction
same,SRE luciferase fold-induction at 32 ng/ml,GPCR73a receptor [5],15 fold-induction
same,SRE luciferase fold-induction at 100 ng/ml,GPCR73a receptor [5],19 fold-induction
same,SRE luciferase fold-induction at 320 ng/ml,GPCR73a receptor [5],20.7 fold-induction
same,SRE luciferase fold-induction at 1000 ng/ml,GPCR73a receptor [5],17.8 fold-induction
same,SRE luciferase fold-induction at 1 ng/ml,GPCR73a receptor [6],4.1 fold-induction
same,SRE luciferase fold-induction at 3.2 ng/ml,GPCR73a receptor [6],7.6 fold-induction
same,SRE luciferase fold-induction at 10 ng/ml,GPCR73a receptor [6],10.2 fold-induction
same,SRE luciferase fold-induction at 32 ng/ml,GPCR73a receptor [6],14.1 fold-induction
same,SRE luciferase fold-induction at 100 ng/ml,GPCR73a receptor [6],17.6 fold-induction
same,SRE luciferase fold-induction at 320 ng/ml,GPCR73a receptor [6],22 fold-induction
same,SRE luciferase fold-induction at 1000 ng/ml,GPCR73a receptor [6],13.9 fold-induction
same,SRE luciferase fold-induction at 1 ng/ml,GPCR73b receptor [7],0.7 fold-induction
same,SRE luciferase fold-induction at 3.2 ng/ml,GPCR73b receptor [7],1.3 fold-induction
same,SRE luciferase fold-induction at 10 ng/ml,GPCR73b receptor [7],1.9 fold-induction
same,SRE luciferase fold-induction at 32 ng/ml,GPCR73b receptor [7],3 fold-induction
same,SRE luciferase fold-induction at 100 ng/ml,GPCR73b receptor [7],4.7 fold-induction
same,SRE luciferase fold-induction at 320 ng/ml,GPCR73b receptor [7],6.3 fold-induction
same,SRE luciferase fold-induction at 1000 ng/ml,GPCR73b receptor [7],7.1 fold-induction
same,SRE luciferase fold-induction at 1 ng/ml,GPCR73b receptor [8],1 fold-induction
same,SRE luciferase fold-induction at 3.2 ng/ml,GPCR73b receptor [8],1.2 fold-induction
same,SRE luciferase fold-induction at 10 ng/ml,GPCR73b receptor [8],1.7 fold-induction
same,SRE luciferase fold-induction at 32 ng/ml,GPCR73b receptor [8],2.6 fold-induction
same,SRE luciferase fold-induction at 100 ng/ml,GPCR73b receptor [8],4.4 fold-induction
same,SRE luciferase fold-induction at 320 ng/ml,GPCR73b receptor [8],5.2 fold-induction
same,SRE luciferase fold-induction at 1000 ng/ml,GPCR73b receptor [8],4.8 fold-induction
B3,SRE luciferase fold-induction at 1 ng/ml (fold-induction),[1],2.5
same,SRE luciferase fold-induction at 3.2 ng/ml (fold-induction),[1],7.1
same,SRE luciferase fold-induction at 10 ng/ml (fold-induction),[1],13.1
same,SRE luciferase fold-induction at 32 ng/ml (fold-induction),[1],18.7
same,SRE luciferase fold-induction at 100 ng/ml (fold-induction),[1],20.5
same,"ERK-Map kinase activity in Wky12-22 cells, EC50",[9],0.5 nM
same,Bmax (fmol bound/10^6 cells),[10],1020
same,Kd,[10],31 nM
same,Bmax (fmol bound/10^6 cells),[11],350
same,Kd,[11],1.5 nM
B4,SRE luciferase fold-induction at 1 ng/ml (fold-induction),[1],1.8
same,SRE luciferase fold-induction at 3.2 ng/ml (fold-induction),[1],3.7
same,SRE luciferase fold-induction at 10 ng/ml (fold-induction),[1],10
same,SRE luciferase fold-induction at 32 ng/ml (fold-induction),[1],14.8
same,SRE luciferase fold-induction at 100 ng/ml (fold-induction),[1],18.6
